In IntAct's records for PubMed 29039417:

B1: BBSome complex member BBS2 (Homo sapiens), Q9BXC9 (parent)
chain: MLLPVFTLKLRHKISPRMVAIGRYDGTHPCLAAATQTGKVFIHNPHTRNQHVSASRVFQSPLESDVSLLSINQAVSCLTAGVLNPELGYDALLVGTQTNLLAYDVYNNSDLFYREVADGANAIVLGTLGDISSPLAIIGGNCALQGFNHEGSDLFWTVTGDNVNSLALCDFDGDGKKELLVGSEDFDIRVFKEDEIVAEMTETEIVTSLCPMYGSRFGYALSNGTVGVYDKTSRYWRIKSKNHAMSIHAFDLNSDGVNELITGWSNGKVDARSDRTGEVIFKDNFSSAIAGVVEGDYRMDGHIQLICCSVDGEIRGYLPGTAEMRGNLMDTSAEQDLIRELSQKKQNLLLELRNYEENAKAELASPLNEADGHRGIIPANTRLHTTLSVSLGNETQTAHTELRISTSNDTIIRAVLIFAEGIFTGESHVVHPSIHNLSSSICIPIVPPKDVPVDLHLKAFVGYRSSTQFHVFESTRQLPRFSMYALTSLDPASEPISYVNFTIAERAQRVVVWLGQNFLLPEDTHIQNAPFQVCFTSLRNGGHLHIKIKLSGEITINTDDIDLAGDIIQSMASFFAIEDLQVEADFPVYFEELRKVLVKVDEYHSVHQKLSADMADHSNLIRSLLVGAEDARLMRDMKTMKSRYMELYDLNRDLLNGYKIRCNNHTELLGNLKAVNQAIQRAGRLRVGKPKNQVITACRDAIRSNNINTLFKIMRVGTASS
partner: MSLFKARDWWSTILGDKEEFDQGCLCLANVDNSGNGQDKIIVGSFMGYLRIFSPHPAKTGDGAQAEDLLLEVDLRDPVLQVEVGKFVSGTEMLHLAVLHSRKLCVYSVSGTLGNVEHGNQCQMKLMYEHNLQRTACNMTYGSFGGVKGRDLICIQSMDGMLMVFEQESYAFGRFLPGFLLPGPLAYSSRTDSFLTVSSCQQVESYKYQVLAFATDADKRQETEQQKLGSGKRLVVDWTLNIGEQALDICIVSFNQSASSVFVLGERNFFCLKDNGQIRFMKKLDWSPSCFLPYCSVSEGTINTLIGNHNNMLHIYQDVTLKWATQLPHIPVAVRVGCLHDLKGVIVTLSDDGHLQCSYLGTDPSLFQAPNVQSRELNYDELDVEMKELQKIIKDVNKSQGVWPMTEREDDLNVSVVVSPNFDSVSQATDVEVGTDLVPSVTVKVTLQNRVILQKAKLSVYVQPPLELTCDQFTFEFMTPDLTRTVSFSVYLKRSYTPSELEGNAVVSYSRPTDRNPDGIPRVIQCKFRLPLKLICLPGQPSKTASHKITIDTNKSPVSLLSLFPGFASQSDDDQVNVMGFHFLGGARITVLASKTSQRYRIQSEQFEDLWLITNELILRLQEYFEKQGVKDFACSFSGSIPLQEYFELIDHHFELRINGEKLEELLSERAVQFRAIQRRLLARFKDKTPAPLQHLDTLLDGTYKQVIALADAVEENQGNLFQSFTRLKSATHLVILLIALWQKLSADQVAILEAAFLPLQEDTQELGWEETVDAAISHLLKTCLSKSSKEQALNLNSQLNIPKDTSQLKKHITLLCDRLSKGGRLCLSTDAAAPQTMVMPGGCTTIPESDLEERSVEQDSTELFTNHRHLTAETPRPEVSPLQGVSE

Variants of: B1
Conditions: with pthb1_human BBS9, Q3SYG4

| Variant | effect of a mutation on the interaction |
| --- | --- |
| N664A | with no effect |
| H604E | with no effect |
| F481E | disrupting interaction strength |
| F481A | disrupting interaction strength |
| S537K | with no effect |
| N528K | with no effect |
| R464A | with no effect |
| S433K | with no effect |
| V389A | with no effect |
| T696E | with no effect |
| R652E | with no effect |
| Q508A | disrupting interaction strength |
| Q508K | with no effect |
| D409A | with no effect |
| N705K | with no effect |
| D653A | with no effect |
| D330A | with no effect |
| K689E | with no effect |
| F535A | with no effect |
| L486E | with no effect |
| L654K | with no effect |
| G462S | disrupting interaction strength |
| N393E | with no effect |
| N393A | with no effect |
| A572K | with no effect |
| F469A | with no effect |

| Variant | effect of a mutation on the interaction |
| --- | --- |
| L352K | with no effect |
| I679K | with no effect |
| V512E | with no effect |
| L593A | with no effect |
| D336E | with no effect |
| S551K | with no effect |
| L685A | with no effect |
| T558A | with no effect |
| I707E | with no effect |
| D649K | with no effect |
| H470E | with no effect |
| T331K | with no effect |
| G565A | with no effect |
| G425K | with no effect |
| I526A | with no effect |
| M714E | with no effect |
| D636K | with no effect |
| L455K | disrupting interaction strength |
| M483E | disrupting interaction strength |
| M483K | disrupting interaction strength |
| L328K | with no effect |
| L328A | with no effect |
| S342A | with no effect |
| I568A | with no effect |
| I404K | with no effect |
| R413A | with no effect |

| Variant | effect of a mutation on the interaction |
| --- | --- |
| D523K | with no effect |
| F472K | with no effect |
| F472A | with no effect |
| S332A | with no effect |
| T410E | with no effect |
| A485E | with no effect |
| T639K | with no effect |
| H617K | with no effect |
| H617A | with no effect |
| G421K | with no effect |
| T709E | with no effect |
| G392A | with no effect |
| G392E | with no effect |
| R686K | with no effect |
| S573A | with no effect |
| I713A | with no effect |
| I660A | with no effect |
| R509E | with no effect |
| I561E | with no effect |
| E356P | disrupting interaction strength |
| E356A | with no effect |
| M645A | with no effect |
| I443E | disrupting interaction strength |
| L538E | with no effect |
| T386K | with no effect |
| S390A | with no effect |

| Variant | effect of a mutation on the interaction |
| --- | --- |
| L363A | with no effect |
| V533E | disrupting interaction strength |
| V533K | with no effect |
| P521K | with no effect |
| K609A | with no effect |
| I411E | with no effect |
| R684E | with no effect |
| R643E | with no effect |
| R374K | with no effect |
| E362K | with no effect |
| E362Y | disrupting interaction strength |
| Y648E | with no effect |
| V511A | with no effect |
| V511E | with no effect |
| V430K | with no effect |
| E357K | with no effect |
| N676K | with no effect |
| K547E | with no effect |
| A370E | with no effect |
| C662K | with no effect |
| K458A | with no effect |
| Y463E | with no effect |
| P432E | with no effect |
| T381K | with no effect |
| F501A | with no effect |
| M640E | with no effect |

| Variant | effect of a mutation on the interaction |
| --- | --- |
| M640A | with no effect |
| D454A | with no effect |
| T424A | with no effect |
| L544A | disrupting interaction strength |
| L544E | disrupting interaction strength |
| H431K | with no effect |
| R353K | with no effect |
| R403E | with no effect |
| R403K | with no effect |
| T475A | with no effect |
| T718K | with no effect |
| P366A | with no effect |
| M634K | with no effect |
| M634E | with no effect |
| T487E | with no effect |
| T666K | with no effect |
| T666A | with no effect |
| D562K | with no effect |
| V600A | with no effect |
| S439A | disrupting interaction strength |
| C698E | with no effect |
| N656A | with no effect |
| I556K | with no effect |
| C534E | with no effect |
| L597A | with no effect |
| E369K | with no effect |

| Variant | effect of a mutation on the interaction |
| --- | --- |
| L457A | with no effect |
| E553K | with no effect |
| R661E | with no effect |
| R476K | with no effect |
| R476E | with no effect |
| N671K | with no effect |
| S642E | with no effect |
| L620K | with no effect |
| T385K | with no effect |
| I377R | disrupting interaction strength |
| I377T | disrupting interaction strength |
| I377E | with no effect |
| Q677K | with no effect |
| L625A | with no effect |
| W513K | disrupting interaction strength |
| W513A | disrupting interaction strength |
| S365K | with no effect |
| S605K | with no effect |
| V582K | with no effect |
| A628K | with no effect |
| M614K | with no effect |
| Y603A | with no effect |
| R632E | with no effect |
| I422A | with no effect |
| G627E | with no effect |
| L349K | with no effect |

| Variant | effect of a mutation on the interaction |
| --- | --- |
| L349E | with no effect |
| P444K | with no effect |
| Q477K | with no effect |
| D450L | disrupting interaction strength |
| L387E | with no effect |
| I445T | disrupting interaction strength |
| V461A | disrupting interaction strength |
| A697K | with no effect |
| V596E | with no effect |
| N380E | disrupting interaction strength |
| H399E | with no effect |
| V415E | with no effect |
| E334K | with no effect |
| N708K | with no effect |
| H428K | with no effect |
| R699E | with no effect |
| R699K | with no effect |
| A361E | with no effect |
| H543K | with no effect |
| F460K | with no effect |
